Experimental data from patent US20260226503A1 (NORTH CAROLINA STATE UNIVERSITY, published 2026).
Where no end group is shown, it is not given here. Toyopearl AF‑Amino‑650M resin = chromatographic resin to which the peptide C-terminus is conjugated

Legend:
AAV9 capsid = AAV9 capsid (adeno-associated virus serotype 9); assay: bind-and-elute chromatography, pure AAV9; bound at pH 7.0, eluted with 1 M MgCl2 pH 6.0; ELISA
AAV2 capsid [1] = target: T1, AAV2 capsid (adeno-associated virus serotype 2, UniProt P03135 1-735; P03135 1-598; P03135 1-533); assay: dynamic binding capacity at 10% breakthrough; AAV2 in HEK293 lysate, 3.2e11 vp/mL, PBS pH 7.4, residence time 3 min
T1 construct: Whole assembled capsid, VP1:VP2:VP3 about 1:1:10; AF594-labelled in the library screen; GFP transgene in the lysate runs; a spherical cap of collated PDB structures in the docking; also called adeno-associated virus serotype 2

AAV2 capsid [2] = target: T1, AAV2 capsid; assay: bind-and-elute chromatography, pure AAV2; bound at pH 7.0, eluted with 1 M MgCl2 pH 6.0; ELISA
AAV2 capsid [3] = target: T1, AAV2 capsid; assay: bind-and-elute chromatography, pure AAV2, non-competitive mode, pH 7.0; AAV titer by ELISA

Binder	yield (AAV titer in elution fraction vs. load) (AAV9 capsid) [%]	DBC10% (vp AAV per mL of resin) (AAV2 capsid [1])	yield (AAV titer in elution fraction vs. load) (AAV2 capsid [2]) [%]	loss (AAV titer in flow-through and wash vs. load) (AAV2 capsid [3]) [%]
IWWHIAKFG-{Toyopearl AF‑Amino‑650M resin} (Peptide immobilised on chromatographic resin; also called W3) [IWWHIAKFG-Toyopearl resin]	61.7	9.53e+12 vp AAV per mL of resin	54.9	< 1.7
IAFKKISIG-{Toyopearl AF‑Amino‑650M resin} (Peptide immobilised on chromatographic resin; also called W6) [IAFKKISIG-Toyopearl resin]				< 1.7
KWWIWAG-{Toyopearl AF‑Amino‑650M resin} (Peptide immobilised on chromatographic resin; also called W8) [KWWIWAG-Toyopearl resin]	57.2			< 1.7
KFNHWFG-{Toyopearl AF‑Amino‑650M resin} (Peptide immobilised on chromatographic resin; also called W1; KFNHWF-Toyopearl) [KFNHWFG-Toyopearl resin]		1.33e+13 vp AAV per mL of resin	45	< 1.7
FNHFFIG-{Toyopearl AF‑Amino‑650M resin} (Peptide immobilised on chromatographic resin; also called W11) [FNHFFIG-Toyopearl resin]				< 1.7
FWNWHHFKG-{Toyopearl AF‑Amino‑650M resin} (Peptide immobilised on chromatographic resin; also called W4) [FWNWHHFKG-Toyopearl resin]	43.9	8.75e+12 vp AAV per mL of resin		< 1.7
FFNFFKG-{Toyopearl AF‑Amino‑650M resin} (Peptide immobilised on chromatographic resin; also called W10; FFNFFK-Toyopearl) [FFNFFKG-Toyopearl resin]	72.4	1.4e+13 vp AAV per mL of resin		< 1.7
FWWAAFFKG-{Toyopearl AF‑Amino‑650M resin} (Peptide immobilised on chromatographic resin; also called W5) [FWWAAFFKG-Toyopearl resin]	53.7		44.8	< 1.7
WKAHNKG-{Toyopearl AF‑Amino‑650M resin} (Peptide immobilised on chromatographic resin; also called W2) [WKAHNKG-Toyopearl resin]			79.8	< 1.7
IKIFFFFSG-{Toyopearl AF‑Amino‑650M resin} (Peptide immobilised on chromatographic resin; also called W7) [IKIFFFFSG-Toyopearl resin]		1.02e+13 vp AAV per mL of resin		< 1.7
WWIKISG-{Toyopearl AF‑Amino‑650M resin} (Peptide immobilised on chromatographic resin; also called W9) [WWIKISG-Toyopearl resin]				< 1.7
